# Assay results published in patent publication US20030181408A1, “Genes essential for microbial proliferation and antisense thereto” (priority 1999, published 2003).
# Where a SMILES comes first, the peptide text is derived from it. Bridges are numbered along the chain shown (N, C = ends). [ ]: non-standard residue; d: D form. The star is where a group is joined. Ileψ(thiazoline)Cys = CC[C@H](C)[C@H](N)C1=N[C@H](C(=O)*)CS1; dOrn = NCCC[C@@H](N)C(=O)O
# B1: EcXA069: antisense clone insert, E. coli genes RplD; rplC (nucleic acid, listed as Escherichia coli)
# DNA: TGAAATNCGACCGAAGGTAGTTTCGGAAACAGTCAGCGCGCTCTGCGCGTCTTTCAATACTAATTCCATTGCTATCTCCTTACGCCTTCACAGCTGGTTTAACGATCAGGTCGCTACCGGTTGCACCCGGGACAGCACCTTTAACCAGCAGCAGGT
# modifications: misc_feature (1)...(156): n = A,T,C or G
# notes: antisense clone insert, E. coli genes RplD; rplC
# B2: EcXA062: antisense clone insert, E. coli gene rep (nucleic acid, listed as Escherichia coli)
# DNA: CGCGTGGAGAGTCATCAGTTGCACCTGATCCAGCTCTTCTTCACTCTCACCACGCTCNATCATGTCGCGCAAAGTAAAGCGCGTCACCACCTGGGTGAGCGTCATCGGCTCATCCAGTTCACTGCCTTCCAGCATCTCCGTCATCCAGCTAAACAGTTGGTTGACGTTCTTCATGCGCATTTCGGCGGCTTTCGGGCTGGGCGATGTTTCGTACAGCCAGGATTCATAATCCATGCCATGGATCAGATCACGCACCGCGGCAATCGGCTCCCGCTCCGCCAGACGCTGGATTTCTGCCAACCAGTGAGTGAAGCGGGTCAATGCTTCA
# modifications: misc_feature (1)...(328): n = A,T,C or G
# notes: antisense clone insert, E. coli gene rep
# B3: EcXA072: antisense clone insert, E. coli gene recJ (nucleic acid, listed as Escherichia coli)
# DNA: GATTTTTACCGGATTAATTTTAAACATGGTCTGATTTCTTTTATTGAGCTAGTCAAAATGCGGTGATAAGAGCGGGATTGTCCCAATCCACGCTCTTTTTTATAGAGAAGATGACGCTAAATTGGCCAGATATTGTCGATGATAATTTG
# B4: EcXA082: antisense clone insert, E. coli genes hybC; hybB (nucleic acid, listed as Escherichia coli)
# DNA: TGCTTTGCTCGCCTCATGACGATTATGATCGTTTTGTTTTAAAGGAGGAAGTATCGGCAGTAGACGAATGAGTACGATGTAAGCGCAAATCTCAATAGCCACAAAACCAATAGAAATCAACAGTTCTTCCCAGGTCGGGAAGTA
# B5: EcXA104: antisense clone insert, E. coli gene hsdS (nucleic acid, listed as Escherichia coli)
# DNA: GACGCGGCGAACGATTTCGGCTTGTTCTTTTACTGGAGGTAATAAAACAACTTGGGATTTGATATCTTTTCCTGAAATACCTTTTTGACCAGAAGTTGTTTTCACGCAGTTCATCATTGCATTTCGTGCTGAGGGGGATGAAAAAAATATTTCGATATATTCTGGTAAAGCATCTTT
# B6: EcXA059: antisense clone insert, portion of the ypjA gene of Escherichia coli (nucleic acid, listed as Escherichia coli)
# DNA: NACCANGANTGGGACCCAAATGAAAATTGAACTGAAGATTACAATCAATTTAACANCAAGTTACACAACCAATTCAGACTCCGCCAGCCCACCAATCATGATTGGACGGTGTAAGGACAACACCAACAAAAACAGGAAGTTAGAAGTCTNAGCAAAACACCGACCAGACGGTGAGGAGACATAAAAGGATACGCAAAGGAGCCGCGGCTCCTGGTAACATGAAAGCCCACAGATGTGGGCTTTTTCGTTGATGGTCAGAACGACCAGTTCACACCAGCTACCGCGTTCCACGGGGATTCCACACCGGCACTATGGCTATACCCCACCCCAAGATGCCCGCTTAACGTACTGCTGAATGAGGCTTTAATACCTGCCTGGTATATTCCACGTCTGCCCGACAAATAATTGACGAAATTACCGNCACTATTCACTTTCACCCGGTTATCATCGACAAATTCTTTGCGCACAAGCCGNCTTCAGCCACGGNTCAACTTCCATACCGNTCCCCAGACGCATGTTGTAACTCAACGTTGCGCCCAGTTCACGATATATACTGCGGGTATCGACTGATTTCGATTTCATGCCATTGGATAAATGATATTCGGGGTTATCAGCGGTGAAACCCGTTNACGATGCATACNGGGTCAGGGTTCAATTACCATCGGTAAATCGCATTCCCGGTTTCAATGTGACCGCCAANCCCGTTGCTGTNGGTAACTGGCATTGGCGGGTTCANCGGTGGTAATTTTAACCTGGTACGNTACTTTTAAAACGGGTTAAGCTTTACCGAANACCGTNCANNATTGGAAACCCNCTTTTAATGGTTNCCCAACTNGGNN
# modifications: misc_feature (1)...(839): n = A,T,C or G
# notes: antisense clone insert, portion of the ypjA gene of Escherichia coli
# System: Enterobacter cloacae
# Experiment: Growth inhibition by IPTG-induced antisense RNA expression in Enterobacter cloacae (induced vs. uninduced serial dilution plating)
# Format: cell-based
# Conditions: not given
# Description: (§1) To study the effects of transcriptional induction in liquid medium, growth curves were carried out by back diluting cultures 1:200 into fresh media with or without 1 mM IPTG and measuring the OD450 every 30 minutes (min). To study the effects of transcriptional induction on solid medium, 10^2, 10^3, 10^4, 10^5, 10^6, 10^7 and 10^8 fold dilutions of overnight cultures were prepared. Aliquots of from 0.5 to 3 μl of these dilutions were spotted on selective agar plates with or without 1 mM IPTG. After overnight incubation, the plates were compared to assess the sensitivity of the clones to IPTG.
# (§2) Molecule No. EcXA059, encoding a portion of the ypjA gene of Escherichia coli, was either transformed directly into Enterobacter cloacae, Salmonella typhimurium and/or Klebsiella pneumoniae or subdloned into an expression vector functional in these species and the subclones transformed into these organisms. Suitable expression vectors are well known in the art. These expression vectors were introduced into Enterobacter cloacae, Salmonella typhimurium and/or Klebsiella pneumoniae cells that were then assayed for growth inhibition according to the method of Example 1. After growth in liquid culture, cells were plated at various serial dilutions and a score determined by calculating the log difference in growth for INDUCED vs. UNINDUCED antisense RNA expression as determined by the maximum 10 fold dilution at which a colony was observed. If there was no effect of antisense RNA expression in one organism, the clone is given a score of zero “0” in that organism. In contrast, a score of “8” means that 10^8 times more cells were required to observe a colony formed on the induced state than in the non-induced state under the conditions used and in that organism.
# (§3) Expression vectors which inhibited growth of E. coli upon induction of antisense RNA expression with IPTG were transformed directly into Enterobacter cloacae, Klebsiella pneumonia or Salmonella typhimurium. The transformed cells were then assayed for growth inhibition according to the method of Example 1. After growth in liquid culture, cells were plated at various serial dilutions and a score determined by calculating the log difference in growth for INDUCED vs. UNINDUCED antisense RNA expression as determined by the maximum 10 fold dilution at which a colony was observed. If there was no effect of antisense RNA expression in a microorganism, the clone is minus in Table V below. In contrast, a positive in Table V below means that at least 10 fold more cells were required to observe a colony on the induced plate than on the non-induced plate under the conditions used and in that microorganism.
row,Molecule,"Sensitivity of E. cloacae to antisense nucleic acid (growth inhibition, induced vs. uninduced)"
1,B1,+ (a positive in Table V below means that at least 10 fold more cells were required to observe a colony on the induced plate than on the non-induced plate)
2,B2,−
3,B3,−

# System: E. coli
# Experiment: Inhibition of E. coli proliferation after IPTG induction of antisense clones (liquid growth curves, dilution spotting on plates)
# Format: cell-based, Escherichia coli
# Conditions: 1 mM IPTG
# Description: as §1, §2
row,Molecule,effect of antisense expression on E. coli growth after IPTG induction
1,B4,reduction in cell growth
2,B5,reduction in cell growth
3,B2,reduction in cell growth
4,B3,reduction in cell growth

# Same assay, conditions: Escherichia coli; IPTG induction; maximum 10 fold dilution at which a colony was observed
row,Molecule,score: log difference in growth for INDUCED vs. UNINDUCED antisense RNA expression
1,B6,8

# System: bacterial strain engineered for expression of an antisense against rplL and rplJ (50S ribosomal subunit proteins)
# Experiment: microbe, parasite or virus in culture
# Format: cell-based, E. coli
# Conditions: read-out: IC50 (+I)
# Description: Antibiotics of various chemical classes and modes of action were purchased from Sigma Chemicals (St. Louis, Mo.). Stock solutions were prepared by dissolving each antibiotic in an appropriate aqueous solution based on information provided by the manufacturer. The final working solution of each antibiotic contained no more than 0.2% (w/v) of any organic solvent. To determine their potency against a bacterial strain engineered for expression of an antisense against a proliferation-required gene encoding 50S ribosomal protein, each antibiotic was serially diluted two or three fold in growth medium supplemented with the appropriate antibiotic for maintenance of the anti-sense construct. At least ten dilutions were prepared for each antibiotic. 25 μL aliquots of each dilution were transferred to discrete wells of a 384-well microplate (the assay plate) using a multi-channel pipette. Quadruplicate wells were used for each dilution of an antibiotic under each treatment condition (plus and minus inducer). Each assay plate contained twenty wells for cell growth controls (growth media replacing antibiotic), ten wells for each treatment (plus and minus inducer, in this example IPTG). Assay plates were usually divided into the two treatments: half the plate containing induced cells and an appropriate concentrations of inducer (in this example IPTG) to maintain the state of induction, the other half containing non-induced cells in the absence of IPTG.
# Cells for the assay were prepared as follows. Bacterial cells containing a construct, from which expression of antisense nucleic acid against rplL and rplJ, which encode proliferation-required 50S ribosomal subunit proteins, is inducible in the presence of IPTG, were grown into exponential growth (OD600 0.2 to 0.3) and then diluted 1:100 into fresh media containing either 400 μM or 0 μM inducer (IPTG). These cultures were incubated at 37° C. for 2.5 hr. After a 2.5 hr incubation, induced and non-induced cells were respectively diluted into an assay medium at a final OD600 value of 0.0004. The medium contained an appropriate concentration of the antibiotic for the maintenance of the anti-sense construct. In addition, the medium used to dilute induced cells was supplemented with 800 μM IPTG so that addition to the assay plate would result in a final IPTG concentration of 400 μM. Induced and non-induced cell suspensions were dispensed (25 μl/well) into the appropriate wells of the assay plate as discussed previously. The plate was then loaded into a plate reader, incubated at constant temperature, and cell growth was monitored in each well by the measurement of light scattering at 595 nm. Growth was monitored every 5 minutes until the cell culture attained a stationary growth phase. For each concentration of antibiotic, a percentage inhibition of growth was calculated at the time point corresponding to mid-exponential growth for the associated control wells (no antibiotic, plus or minus IPTG). For each antibiotic and condition (plus or minus IPTG), a plot of percent inhibition versus log of antibiotic concentration was generated and the IC50 determined.
row,Molecule,IC50
1,CC[C@H](C)[C@H](N)C1=N[C@H](C(=O)N[C@@H](CC(C)C)C(=O)N[C@H](CCC(=O)O)C(=O)N[C@H](C(=O)N[C@H]2CCCCNC(=O)[C@H](CC(N)=O)NC(=O)[C@@H](CC(=O)O)NC(=O)[C@H](Cc3cnc[nH]3)NC(=O)[C@@H](Cc3ccccc3)NC(=O)[C@H]([C@@H](C)CC)NC(=O)[C@@H](CCCN)NC2=O)[C@@H](C)CC)CS1 [Bacitracin] ({Ileψ(thiazoline)Cys}-L[dE]IK[dOrn]I[dF]H[dD]N; lactam 4-C),4670 µg/mL
2,CO/N=C(\C(=O)N[C@@H]1C(=O)N2C(C(=O)O)=C(COC(C)=O)CS[C@H]12)c1csc(N)n1 [Cefotaxime],0.0241 µg/mL
3,O=C(N[C@H](CO)[C@H](O)c1ccc([N+](=O)[O-])cc1)C(Cl)Cl [Chloramphenicol],0.00151 µg/mL
4,CN(C)c1ccc(O)c2c1C[C@H]1C[C@H]3[C@H](N(C)C)C(O)=C(C(N)=O)C(=O)[C@@]3(O)C(O)=C1C2=O [Minocycline],0.00389 µg/mL
5,CCn1cc(C(=O)O)c(=O)c2ccc(C)nc21 [Nalidixic acid],6.02 µg/mL
6,CN[C@@H]1[C@H](O)[C@H](NC)[C@H]2O[C@@]3(O)C(=O)C[C@@H](C)O[C@H]3O[C@@H]2[C@H]1O [Spectinomycin],< 0.15 µg/mL
7,NC[C@H]1O[C@H](O[C@H]2[C@H](O)[C@@H](O[C@H]3O[C@H](CO)[C@@H](O)[C@H](N)[C@H]3O)[C@H](N)C[C@@H]2N)[C@H](N)C[C@@H]1O [Tobramycin],0.0705 µg/mL

# System: Salmonella typhimurium
# Experiment: Growth inhibition by IPTG-induced antisense RNA expression in Salmonella typhimurium (induced vs. uninduced serial dilution plating)
# Format: cell-based
# Conditions: not given
# Description: as §1, §2, §3
row,Molecule,"Sensitivity of S. typhimurium to antisense nucleic acid (growth inhibition, induced vs. uninduced)"
1,B1,−
2,B4,−
3,B2,−

# System: Klebsiella pneumoniae
# Experiment: Growth inhibition by IPTG-induced antisense RNA expression in Klebsiella pneumoniae (induced vs. uninduced serial dilution plating)
# Format: cell-based
# Conditions: not given
# Description: as §1, §2, §3
row,Molecule,"Sensitivity of K. pneumoniae to antisense nucleic acid (growth inhibition, induced vs. uninduced)"
1,B1,−
2,B4,−
3,B2,−
